Laboratory results from the supplement of paper PMC10567573.

B1: TRIM35 (parent)
chain: PTCPVCKDRASPADLRTNHTLNNL

Variants of: B1
Test: protein stability index of a GFP-peptide fusion (GPS, HEK-293T) (PSI 1-6); higher = more stable
Details: c terminus: a fixed tail appended
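Also: lentivirally expressed fusions sorted by FACS into six bins by GFP to DsRed ratio, PSI derived from sequencing read proportions per bin multiplied by bin number.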

| Variant | protein stability index |
| --- | --- |
| PTCPVCKDRASPAPLRTNHTLNNL [D14P] | 2.98 |
| PTCPVCKDRASPANLRTNHTLNNL [D14N] | 2.5 |
| PTCPVCKDRASPAKLRTNHTLNNL [D14K] | 2.72 |
| PTCPVCKDRASPAFLRTNHTLNNL [D14F] | 2.21 |
| PTCPVCKDRASPAVLRTNHTLNNL [D14V] | 2.54 |
| PTCPVCKDRASPAGLRTNHTLNNL [D14G] | 2.48 |
| PTCPVCKDRASPAWLRTNHTLNNL [D14W] | 2.6 |
| PTCPVCKDRASPAALRTNHTLNNL [D14A] | 2.5 |
| PTCPVCKDRASPASLRTNHTLNNL [D14S] | 2.98 |
| PTCPVCKDRASPAQLRTNHTLNNL [D14Q] | 3.18 |
| PTCPVCKDRASPACLRTNHTLNNL [D14C] | 3.9 |
| PTCPVCKDRASPAYLRTNHTLNNL [D14Y] | 2.24 |
| PTCPVCKDRASPALLRTNHTLNNL [D14L] | 2.2 |
| PTCPVCKDRASPAELRTNHTLNNL [D14E] | 3.12 |
| PTCPVCKDRASPAHLRTNHTLNNL [D14H] | 2.97 |
| PTCPVCKDRASPAILRTNHTLNNL [D14I] | 2.45 |
| PTCPVCKDRASPATLRTNHTLNNL [D14T] | 2.77 |
| PTCPVCKDRASPARLRTNHTLNNL [D14R] | 2.94 |
| PTCPVCKDRASPAMLRTNHTLNNL [D14M] | 2.2 |
| PTCPVCKDRASPADKRTNHTLNNL [L15K] | 3.21 |
| PTCPVCKDRASPADIRTNHTLNNL [L15I] | 3 |
| PTCPVCKDRASPADNRTNHTLNNL [L15N] | 3.96 |
| PTCPVCKDRASPADCRTNHTLNNL [L15C] | 4.23 |
| PTCPVCKDRASPADDRTNHTLNNL [L15D] | 3.73 |

| Variant | protein stability index |
| --- | --- |
| PTCPVCKDRASPADFRTNHTLNNL [L15F] | 2.66 |
| PTCPVCKDRASPADGRTNHTLNNL [L15G] | 3.87 |
| PTCPVCKDRASPADHRTNHTLNNL [L15H] | 3.14 |
| PTCPVCKDRASPADWRTNHTLNNL [L15W] | 2.13 |
| PTCPVCKDRASPADVRTNHTLNNL [L15V] | 3.67 |
| PTCPVCKDRASPADPRTNHTLNNL [L15P] | 3.34 |
| PTCPVCKDRASPADTRTNHTLNNL [L15T] | 3.57 |
| PTCPVCKDRASPADERTNHTLNNL [L15E] | 3.86 |
| PTCPVCKDRASPADMRTNHTLNNL [L15M] | 2.9 |
| PTCPVCKDRASPADARTNHTLNNL [L15A] | 3.35 |
| PTCPVCKDRASPADQRTNHTLNNL [L15Q] | 3.78 |
| PTCPVCKDRASPADYRTNHTLNNL [L15Y] | 2.83 |
| PTCPVCKDRASPADSRTNHTLNNL [L15S] | 3.57 |
| PTCPVCKDRASPADRRTNHTLNNL [L15R] | 3.33 |
| PTCPVCKDRAGPADLRTNHTLNNL [S11G] | 2.94 |
| PTCPVCKDRAHPADLRTNHTLNNL [S11H] | 2.92 |
| PTCPVCKDRAWPADLRTNHTLNNL [S11W] | 2.51 |
| PTCPVCKDRARPADLRTNHTLNNL [S11R] | 2.72 |
| PTCPVCKDRAFPADLRTNHTLNNL [S11F] | 2.55 |
| PTCPVCKDRAAPADLRTNHTLNNL [S11A] | 3.3 |
| PTCPVCKDRAPPADLRTNHTLNNL [S11P] | 3.19 |
| PTCPVCKDRATPADLRTNHTLNNL [S11T] | 3.04 |
| PTCPVCKDRAVPADLRTNHTLNNL [S11V] | 3.1 |
| PTCPVCKDRAYPADLRTNHTLNNL [S11Y] | 3.11 |

| Variant | protein stability index |
| --- | --- |
| PTCPVCKDRAKPADLRTNHTLNNL [S11K] | 3.32 |
| PTCPVCKDRAMPADLRTNHTLNNL [S11M] | 3.1 |
| PTCPVCKDRACPADLRTNHTLNNL [S11C] | 3.74 |
| PTCPVCKDRANPADLRTNHTLNNL [S11N] | 2.86 |
| PTCPVCKDRALPADLRTNHTLNNL [S11L] | 3.07 |
| PTCPVCKDRAEPADLRTNHTLNNL [S11E] | 3.51 |
| PTCPVCKDRADPADLRTNHTLNNL [S11D] | 3.44 |
| PTCPVCKDRAQPADLRTNHTLNNL [S11Q] | 3.07 |
| PTCPVCKDRAIPADLRTNHTLNNL [S11I] | 2.97 |
| PTCPVCMDRASPADLRTNHTLNNL [K7M] | 2.87 |
| PTCPVCQDRASPADLRTNHTLNNL [K7Q] | 3.37 |
| PTCPVCIDRASPADLRTNHTLNNL [K7I] | 3.18 |
| PTCPVCSDRASPADLRTNHTLNNL [K7S] | 2.68 |
| PTCPVCHDRASPADLRTNHTLNNL [K7H] | 3.13 |
| PTCPVCNDRASPADLRTNHTLNNL [K7N] | 3.13 |
| PTCPVCDDRASPADLRTNHTLNNL [K7D] | 3.65 |
| PTCPVCWDRASPADLRTNHTLNNL [K7W] | 2.84 |
| PTCPVCYDRASPADLRTNHTLNNL [K7Y] | 2.72 |
| PTCPVCFDRASPADLRTNHTLNNL [K7F] | 2.94 |
| PTCPVCTDRASPADLRTNHTLNNL [K7T] | 2.72 |
| PTCPVCRDRASPADLRTNHTLNNL [K7R] | 2.72 |
| PTCPVCGDRASPADLRTNHTLNNL [K7G] | 2.72 |
| PTCPVCADRASPADLRTNHTLNNL [K7A] | 3.19 |
| PTCPVCLDRASPADLRTNHTLNNL [K7L] | 2.91 |

| Variant | protein stability index |
| --- | --- |
| PTCPVCVDRASPADLRTNHTLNNL [K7V] | 3.45 |
| PTCPVCCDRASPADLRTNHTLNNL [K7C] | 2.68 |
| PTCPVCEDRASPADLRTNHTLNNL [K7E] | 3.88 |
| PTCPVCPDRASPADLRTNHTLNNL [K7P] | 4.04 |
| PTCPVCKDIASPADLRTNHTLNNL [R9I] | 2.96 |
| PTCPVCKDHASPADLRTNHTLNNL [R9H] | 3.66 |
| PTCPVCKDQASPADLRTNHTLNNL [R9Q] | 3.55 |
| PTCPVCKDYASPADLRTNHTLNNL [R9Y] | 3.08 |
| PTCPVCKDCASPADLRTNHTLNNL [R9C] | 2.97 |
| PTCPVCKDSASPADLRTNHTLNNL [R9S] | 3.5 |
| PTCPVCKDWASPADLRTNHTLNNL [R9W] | 3.11 |
| PTCPVCKDVASPADLRTNHTLNNL [R9V] | 2.9 |
| PTCPVCKDPASPADLRTNHTLNNL [R9P] | 3.71 |
| PTCPVCKDEASPADLRTNHTLNNL [R9E] | 3.62 |
| PTCPVCKDGASPADLRTNHTLNNL [R9G] | 3.66 |
| PTCPVCKDLASPADLRTNHTLNNL [R9L] | 3.07 |
| PTCPVCKDMASPADLRTNHTLNNL [R9M] | 2.97 |
| PTCPVCKDKASPADLRTNHTLNNL [R9K] | 3.16 |
| PTCPVCKDNASPADLRTNHTLNNL [R9N] | 3.12 |
| PTCPVCKDAASPADLRTNHTLNNL [R9A] | 2.98 |
| PTCPVCKDFASPADLRTNHTLNNL [R9F] | 3.11 |
| PTCPVCKDDASPADLRTNHTLNNL [R9D] | 3.99 |
